According to patent US11130803B2, “Isoform-selective TGFβ1 inhibitors and use thereof” (Scholar Rock, Inc., priority 2018, dated 2021):
Positions count from the first letter of the chain named. Read-outs that look alike come from different tables or passages of the source. Blank lines part the entries; values can stand above or below the molecule they belong to.

Tests used:
non-diseased rat BAL = details: cited from earlier work
[1] = test system: mouse models of injury, Marfan's syndrome, and muscular dystrophy; details: in vivo; cited from earlier work
[2] = human, in vivo; cited from earlier work
human patients = details: in vivo; cited from earlier work
[3] = test system: MBT2 tumors, intratumoral immune cells; experiment: MBT2 tumor immune contexture (flow cytometry, IHC, qPCR); details: mouse, in vivo
Excerpt: To study the immune effects of anti-PD-1 or AB6-mIgG1 treatment as single agents or in combination, MBT-2 tumors were harvested from mice 10 days after treatment initiation and then subjected to immunohistochemical and flow cytometry analyses of select immune cell markers. […] The relevance of this increase in Treg cells is unclear given the significant anti-tumor effects observed with combination treatment. […] This appears to be due to selective reduction in CD11b+CD206+ and CD11b+Gr1+ subpopulations, which correspond to immunosuppressive M2-like macrophages and myeloid-derived suppressor cells (MDSC), respectively. Collectively, the representation of these two populations of cells is reduced from an average of 47% of the CD45+ cell population to 14% after combination treatment (FIG. 34B).
Each study group contained 12 mice with MBT2 tumors as described herein. Ab6-treatment group received the antibody weekly, on day 1 and day 8, at 10 mg/kg. […]
Tumor-associated immune cell subsets were also analyzed by tumor flow cytometry in MBT-2 tumors. […] Flow cytometry was performed on a Attune NxT (ThermoFisher) and analyzed with FlowJo (BD Bioscience).
For immunohistochemical analysis, tumors from six animals were cut in halves and fixed. […] FIG. 36E provides the quantitation of the IHC data, shown as % of CD8-positive cells of total nuclei. […]

[4] = biological target: T1, recombinant human GARP-proTGFβ1 complex (Homo sapiens, UniProt P01137); experiment: Octet (Biolayer Interferometry) in vitro kinetic binding; details: in M
T1 construct: made in house
Excerpt: (§1) Biolayer Interferometry (BLI):BLI is a label-free technology for optically measuring biomolecular interactions, e.g., between a ligand immobilized on the biosensor tip surface and an analyte in solution. BLI provides the ability to monitor binding specificity, rates of association and dissociation, or concentration, with precision and accuracy. BLI platform instruments are commercially available, for example, from ForteBio and are commonly referred to as the Octet® System.
(§2) BLI-based binding assays are widely used in the art for measuring affinities and kinetics of antibodies to antigens. It is a label-free technology in which biomolecular interactions are analyzed on the basis of optical interference. One of the proteins, for example, an antibody being tested, can be immobilized on the biosensor tip. When the other protein in solution, for example, an antigen, becomes bound to the immobilized antibody, it causes a shift in the interference pattern, which can be measured in real-time. This allows the monitoring of binding specificity, rates of association and dissociation, as well as concentration dependency. […] Due to its ease of use and fast results, BLI-based assays such as the Octet® system (available from ForteBio/Molecular Devices, Fremont Calif.), are particularly convenient when used as an initial screening method to identify and separate a pool of “binders” from a pool of “non-binders” or “weak binders” in the screening process.
(§3) Table 8 below provides non-limiting examples of high-affinity, context-independent proTGFβ1 antibodies encompassed by the present invention. The table provides representative results from in vitro binding assays, as measured by Octet®.
(§4) Column (A) of the table lists monoclonal antibodies with discrete amino acid sequences. […] Columns (B), (D), (E) and (F) provide affinities of each of the listed antibodies, measured in KD. […] Average KD values of (B) and (C) are shown in the corresponding column (D), which collectively represents affinities of the antibodies to ECM- or matrix-associated proTGFβ1 complexes. Similarly, Average KD values of (E) and (F) are shown in the corresponding column (G), which collectively represents affinities of the antibodies to cell-surface or cell-associated proTGFβ1 complexes. Finally, relative ratios between the average KD values from columns (D) and (G) are expressed as “fold bias” in column (H). Thus, the greater the number of column (H) is, the greater bias exists for the particular antibody, when comparing binding preferences of the antibody for matrix-associated complexes and cell-surface complexes. This is one way of quantitatively representing and comparing inherent bias of antibodies to their target complexes. Such analyses may be useful in guiding the selection process for a candidate antibody for particular therapeutic use.
(§5) In some embodiments, the binding affinity of an antibody, or antigen binding portion thereof, to an antigen (e.g., protein complex), such as presenting molecule-proTGFβ1 complexes, is determined using an Octet assay. In some embodiments, an Octet assay is an assay that determines one or more a kinetic parameters indicative of binding between an antibody and antigen. In some embodiments, an Octet® system (ForteBio, Menlo Park, Calif.) is used to determine the binding affinity of an antibody, or antigen binding portion thereof, to presenting molecule-proTGFβ1 complexes. For example, binding affinities of antibodies may be determined using the fortéBio Octet QKe dip and read label free assay system utilizing bio-layer interferometry. In some embodiments, antigens are immobilized to biosensors (e.g., streptavidin-coated biosensors) and the antibodies and complexes (e.g., biotinylated presenting molecule-proTGFβ1 complexes) are presented in solution at high concentration ([…]) to measure binding interactions. […]

[5] = biological target: T2, recombinant human LRRC33-proTGFβ1 complex (Homo sapiens, UniProt P01137); experiment: as above; details: in M
T2 construct: made in house
Excerpt: as §1, §2, §3, §4, §5

[6] = biological target: T3, recombinant human LTBP1-proTGFβ1 complex (Homo sapiens, UniProt P01137); experiment: as above; details: in M
T3 construct: made in house; host or cells: Expi293F cells, transient co-transfection
Excerpt: as §1, §2, §3, §4, §5

[7] = biological target: T4, recombinant human LTBP3-proTGFβ1 complex (Homo sapiens, UniProt P01137); experiment: as above; details: in M
T4 construct: made in house; host or cells: Expi293F cells, transient co-transfection
Excerpt: as §1, §2, §3, §4, §5

[8] = test system: matrix-associated (LTBP1/LTBP3) and cell-associated (GARP/LRRC33) proTGFβ1 complexes; experiment: Octet: average KD and fold bias, matrix- vs cell-associated complexes; type: binding, human; details: for Kd: average KD of (E) and (F), cell-associated complexes, read-out: (G) Cell AVRG; for (H) G/D (fold bias): ratio of average KD cell-associated / matrix-associated
Excerpt: Column (A) of the table lists monoclonal antibodies with discrete amino acid sequences. […] Columns (B), (D), (E) and (F) provide affinities of each of the listed antibodies, measured in KD. […] Average KD values of (B) and (C) are shown in the corresponding column (D), which collectively represents affinities of the antibodies to ECM- or matrix-associated proTGFβ1 complexes. Similarly, Average KD values of (E) and (F) are shown in the corresponding column (G), which collectively represents affinities of the antibodies to cell-surface or cell-associated proTGFβ1 complexes. Finally, relative ratios between the average KD values from columns (D) and (G) are expressed as “fold bias” in column (H). […] This is one way of quantitatively representing and comparing inherent bias of antibodies to their target complexes.
Average KD values between the two matrix-associated and cell-associated complexes are calculated, respectively (see columns (D) and (G)). These average KD values can then be used to ask whether bias in binding activities exists between complexes associated with matrix vs. complexes associated with cell surface (e.g., immune cells). Bias may be expressed as “fold-difference” in the average KD values, as illustrated in Table 8.

[9] = test system: matrix-associated (LTBP1/LTBP3) and cell-associated (GARP/LRRC33) proTGFβ1 complexes; experiment: as above; type: binding, human; details: average KD of (B) and (C), read-out: (D) ECM AVRG

T2 sequence (P01137 30-390): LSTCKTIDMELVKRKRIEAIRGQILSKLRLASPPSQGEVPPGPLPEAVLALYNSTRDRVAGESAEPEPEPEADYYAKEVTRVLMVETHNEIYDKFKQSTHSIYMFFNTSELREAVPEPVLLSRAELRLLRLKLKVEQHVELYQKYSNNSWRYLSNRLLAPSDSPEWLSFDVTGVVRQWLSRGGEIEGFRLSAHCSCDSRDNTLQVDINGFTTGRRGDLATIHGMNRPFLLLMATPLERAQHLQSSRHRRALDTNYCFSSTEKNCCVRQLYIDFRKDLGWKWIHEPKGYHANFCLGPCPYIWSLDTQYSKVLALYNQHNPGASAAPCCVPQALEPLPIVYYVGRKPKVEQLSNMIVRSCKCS
T2 sequence (Q86YC3 19-650 partner limits assumed): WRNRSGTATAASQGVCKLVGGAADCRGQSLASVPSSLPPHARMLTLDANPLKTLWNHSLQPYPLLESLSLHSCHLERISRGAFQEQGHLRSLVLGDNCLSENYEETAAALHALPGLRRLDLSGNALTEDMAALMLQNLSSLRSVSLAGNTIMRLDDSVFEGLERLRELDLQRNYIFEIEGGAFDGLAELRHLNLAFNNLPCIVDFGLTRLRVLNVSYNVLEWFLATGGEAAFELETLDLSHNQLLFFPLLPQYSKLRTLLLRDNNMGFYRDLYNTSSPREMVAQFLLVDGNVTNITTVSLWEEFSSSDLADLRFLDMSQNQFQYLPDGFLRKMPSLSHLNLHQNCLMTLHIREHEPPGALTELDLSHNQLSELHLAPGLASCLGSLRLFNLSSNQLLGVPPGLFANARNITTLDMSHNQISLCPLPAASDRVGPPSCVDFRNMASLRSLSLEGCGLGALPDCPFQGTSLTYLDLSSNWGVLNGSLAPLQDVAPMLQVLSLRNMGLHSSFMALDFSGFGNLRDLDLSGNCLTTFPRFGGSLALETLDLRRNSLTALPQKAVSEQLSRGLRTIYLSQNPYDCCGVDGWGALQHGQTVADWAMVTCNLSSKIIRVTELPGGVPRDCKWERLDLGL
T1 sequence (P01137 30-390): as the sequence (P01137 30-390) above
T1 sequence (Q14392 20-627 partner limits assumed): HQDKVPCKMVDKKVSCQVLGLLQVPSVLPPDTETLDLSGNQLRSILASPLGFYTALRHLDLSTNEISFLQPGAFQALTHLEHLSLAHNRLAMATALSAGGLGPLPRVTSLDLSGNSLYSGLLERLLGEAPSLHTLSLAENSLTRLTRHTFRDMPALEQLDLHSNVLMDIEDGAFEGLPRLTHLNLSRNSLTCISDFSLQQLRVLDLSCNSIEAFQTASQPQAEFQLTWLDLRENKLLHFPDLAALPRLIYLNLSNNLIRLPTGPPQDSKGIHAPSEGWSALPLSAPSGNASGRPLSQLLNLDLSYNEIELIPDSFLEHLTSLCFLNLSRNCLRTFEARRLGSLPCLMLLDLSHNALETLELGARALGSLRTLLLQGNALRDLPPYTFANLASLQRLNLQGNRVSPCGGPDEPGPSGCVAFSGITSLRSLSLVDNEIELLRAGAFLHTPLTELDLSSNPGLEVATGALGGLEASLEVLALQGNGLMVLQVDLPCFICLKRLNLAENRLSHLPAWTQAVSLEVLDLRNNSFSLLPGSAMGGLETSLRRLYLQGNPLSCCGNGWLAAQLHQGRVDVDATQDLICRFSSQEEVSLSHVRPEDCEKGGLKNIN
T3 sequence (P01137 30-390): as the sequence (P01137 30-390) above
T3 sequence (Q14766 873-1507 partner): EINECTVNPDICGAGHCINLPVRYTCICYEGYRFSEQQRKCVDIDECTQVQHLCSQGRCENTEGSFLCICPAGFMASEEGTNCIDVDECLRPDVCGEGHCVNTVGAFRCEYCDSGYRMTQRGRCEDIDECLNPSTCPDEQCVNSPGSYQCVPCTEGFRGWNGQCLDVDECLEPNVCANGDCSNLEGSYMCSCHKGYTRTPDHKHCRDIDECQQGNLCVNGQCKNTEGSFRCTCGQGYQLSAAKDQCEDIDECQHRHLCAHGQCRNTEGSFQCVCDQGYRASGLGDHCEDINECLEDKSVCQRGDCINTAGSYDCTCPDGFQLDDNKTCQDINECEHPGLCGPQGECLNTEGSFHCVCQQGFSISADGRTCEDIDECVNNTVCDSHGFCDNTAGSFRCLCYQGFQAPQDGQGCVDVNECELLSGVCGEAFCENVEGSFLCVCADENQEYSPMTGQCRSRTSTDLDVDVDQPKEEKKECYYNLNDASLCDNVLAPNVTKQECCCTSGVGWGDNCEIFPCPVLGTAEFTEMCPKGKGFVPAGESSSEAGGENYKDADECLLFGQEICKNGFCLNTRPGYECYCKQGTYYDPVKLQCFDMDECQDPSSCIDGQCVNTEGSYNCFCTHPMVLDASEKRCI
T4 sequence (P01137 30-390): as the sequence (P01137 30-390) above
T4 sequence (Q9NS15 866-1039 partner limits assumed): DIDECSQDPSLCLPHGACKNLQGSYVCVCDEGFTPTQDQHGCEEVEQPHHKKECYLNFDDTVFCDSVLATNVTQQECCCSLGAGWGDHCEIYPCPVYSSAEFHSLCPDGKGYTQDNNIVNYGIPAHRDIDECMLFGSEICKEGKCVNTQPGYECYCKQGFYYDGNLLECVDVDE

Molecule: c1ccc(-c2nn3c(c2-c2ccnc4cc(OCCN5CCOCC5)ccc24)CCC3)nc1 [LY2109761]
- TGFβ downstream tonic signaling (non-diseased rat BAL): inhibit TGFβ downstream tonic signaling

Molecule: Cc1ccc(C(=O)Nc2ccc(S(=O)(=O)O)c3cc(S(=O)(=O)O)cc(S(=O)(=O)O)c23)cc1NC(=O)c1cccc(NC(=O)Nc2cccc(C(=O)Nc3cc(C(=O)Nc4ccc(S(=O)(=O)O)c5cc(S(=O)(=O)O)cc(S(=O)(=O)O)c45)ccc3C)c2)c1 [suramin]
- muscle pathology and fibrosis [1]: effective in improving muscle pathology and reducing fibrosis

Molecule: GC1008: human analog of 1D11; pan-TGFβ antibody
- Exposure: DN Cmax [2]: DN Cmax ~(350 ng/mL)mg (ng/mL)mg
- Exposure: Half life [2]: Half life: 21.7 d
- previously reported adverse events (human patients): leukocytosis (grade 3), fatigue (grade 3), hypoxia (grade 3), asystole (grade 5), leukopenia (grade 1), recurrent, transient, tender erythematous, nodular skin lesions, suppurative dermatitis, and herpes zoster

Molecule: CCCCc1nc(Cl)c(CO)n1Cc1ccc(-c2ccccc2-c2nn[nH]n2)cc1 [losartan]
- muscle pathology and fibrosis [1]: effective in improving muscle pathology and reducing fibrosis

B1: Ab6-mIgG1: chimeric antibody with the human V domains of Ab6 fused to mouse IgG1/kappa constant domains (protein)
heavy chain: EVQLVESGGGLVQPGGSLRLSCTASGFTFSSFSMDWVRQAPGKGLEWVSYISPSADTIYYADSVKGRFTISRDNAKNTLYLQMNSLRAEDTAVYYCARGVLDYGDMLMPWGQGTLVTVSS
light chain: DIQMTQSPSSLSASVGDRVTITCQASQDITNYLNWYQQKPGKAPKLLIYDASNLETGVPSRFSGSGSGTDFTFTISSLQPEDIATYYCQQADNHPPWTFGGGTKVEIK
- phospho-Smad3 staining at tumor vascular endothelium (IHC) [3]: much diminished

- (E) hGARP, Cell-associated proTGFb1 (KD) [4]: 4.16E−09
- (F) hLRRC33, Cell-associated proTGFb1 (KD) [5]: 6.31E−10
- (B) hLTBP1, Matrix-associated proTGFb1 (KD) [6]: 1.81E−10
- (C) hLTBP3, Matrix-associated proTGFb1 (KD) [7]: 1.32E−10
B2: Ab16: monoclonal antibody; VH SEQ ID NO: 247, VL SEQ ID NO: 241 (antibody, V domains shown)
VH: EVQLLESGGGLVQPGGSLRLSCAASGFTFSNYAMSWVRQAPGKGLEWVSAISGSGFTTYYADSVKGRFTISRDNSKNTLYLQMNSLRAEDTAVYYCARVSSGHWDFDYWGQGTLVTVSS
VL: DIQLTQSPSSLSASVGDRVTITCRASQSISSYLNWYQQKPGKAPKLLIYAASNLQSGVPSRFSGSGSGTDFTLTISSLQPEDFATYYCQQTYTVPLTFGGGTKVEIK
- Kd [8]: 2.4 nM
- (H) G/D (fold bias) [8]: 15.307 fold
- Kd [9]: 0.157 nM

- (E) hGARP, Cell-associated proTGFb1 (KD) [4]: 1.15E−08
- (F) hLRRC33, Cell-associated proTGFb1 (KD) [5]: 1.02E−09
- (B) hLTBP1, Matrix-associated proTGFb1 (KD) [6]: 3.12E−10
- (C) hLTBP3, Matrix-associated proTGFb1 (KD) [7]: 2.57E−10
B3: Ab18: monoclonal antibody; VH SEQ ID NO: 249, VL SEQ ID NO: 241 (antibody, V domains shown)
VH: B2 VH with E1Q, L5V, L11V, G16R, N31D, S35V, F56A, T57A, Y60F, R98T
VL: B2 VL
- Kd [8]: 6.26 nM
- (H) G/D (fold bias) [8]: 22.00 fold
- Kd [9]: 0.284 nM

- (E) hGARP, Cell-associated proTGFb1 (KD) [4]: 8.62E−09
- (F) hLRRC33, Cell-associated proTGFb1 (KD) [5]: 6.58E−10
- (B) hLTBP1, Matrix-associated proTGFb1 (KD) [6]: 1.74E−10
- (C) hLTBP3, Matrix-associated proTGFb1 (KD) [7]: 2.08E−10
B4: Ab17: monoclonal antibody; VH SEQ ID NO: 248, VL SEQ ID NO: 241 (antibody, V domains shown)
VH: B2 VH with L11V, N31S, Y32F, S35T, F56A, T57A, Y60F
VL: B2 VL
- Kd [8]: 4.64 nM
- (H) G/D (fold bias) [8]: 24.288 fold
- Kd [9]: 0.191 nM
